The nanobody polyreactivity screen of Harvey et al. (2022)

Assay: yeast display, Sf9 membrane polyspecificity reagent, FACS + sequencing; frameworks hold sequencing errors
Method in brief: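 Nanobodies from a synthetic yeast display library (Saccharomyces cerevisiae BJ5465), induced 36–48 hours with galactose, were stained 1 hour at 4 °C with 10% biotinylated, detergent-solubilized Sf9 membrane reagent, enriched on streptavidin microbeads, then FACS-sorted. Anti-HA (expression) and streptavidin (reagent binding) fluorescence set low and high (top ~1%) gates. Polyreactivity labels come from the gate of origin. Genes were colony-PCR amplified, MiSeq 2 × 250 sequenced and filtered by CDR length.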

| Sequence | polyreactivity (PSR sort gate) |
| --- | --- |
| QVQLVESGGGLVQAGGSLRLSCAASGITLRRNAMGWYRQAPGKERELVARISTTGGSTYYADSVKGRFTISRDNAKNTVYLQMNSLKPEDTAVYYCAADYVQYEFEYWGQGTQVTVSS | high polyreactivity |
| EEELVESGGGLVQAGGSLRLSCAASGRTFARNAMGWYRQAPGKERELVAGINFSGGNTYYADSVKGRFTISRDNAKNTVYLQMNSLKPEDTAVYYCAARRYWEGDYWGHGTQVTVSS | low polyreactivity |
| QVQLVESGGGLVQAGGSLRLSCAASGRIFDIYAMGWYRQAPGKERELVAAIDESGGSTYYADSVKGRFTISRDNAKNTVYLQMNSLKPEDTAVYYCATDDTWTISYGWYWFTYEYWGQGTQVTVSS | low polyreactivity |
| QVQLVESGGGFVQAGGSLRLSCAASGRTFWNYAMGWYRPAPGKERELVAVIRFSDGSTYYADSVKGRFTISRDHAKNTVYLQMNSLKPEDTAVYYCAAKGPRRWGSGFDYWGQGTQVTVSS | low polyreactivity |
| QVQLVESGGGLVQAGGSLRLSCAASGRIFDGNAMGWYRQAPGKERELVATITRGGRTNYADSVKGRFTISRDNAKNTVYLQMNSLKPEDTAVYYCNARGSERVDTYSLYDYWGQGTQVTVSS | low polyreactivity |
| QVQHDQSGGGLVQAGGSLRLSCAASGRTFKPYVMGRYREAPGKERELVAAISSRGDITYYADSVKGRFTITRDNAKNTVYLQMNSLKPEDTAVYYCNAGPAVRSAYSTPYYDYWGQGTQVTVSS | low polyreactivity |
| QVQLVESVGGLVQAGGSLRLSSAASGRTFSNAKGWYRQAPGKERELVADISSGGSTNYADSVKGRFTISRDNAKNTVYLQMNSLKPEDPAVYYCAAVSGSLYGYSDDYWGQGTQVTVSS | low polyreactivity |
| QVQLVESGGGLVQAGGSLRLSCAASGSTFGTYAMGWYRQAPGKERELVADITGSGGSTYYADSVKGRFTISRDNAKNTVYLQMNSLKPEDTAVYYCAAEYGLGDDTAYGYWGQGTQVTVSS | low polyreactivity |
| QVQLVESGGGLVQAGGSLRLSCAASGIILGRYAMGWYRQAPGKERELVAAITASGGRTYYADSVKWRFTISRDNAKNTVYLQMNSLKPEDTAVYYCNTVYWGYKSHYDYWGQGTQVTVSS | high polyreactivity |
| QVQLVESGGGLVQAGGSLRLSCAASGYTFGTYDMGWYRQAPGNERELGAAISLGGSTNYADSVKGPFTISRDNAKNTVYLQMYSLKPEDTAVYYCAAEVNVGTLLLSVIVEDGDYWGQGTQVTVSS | low polyreactivity |
| QVQLVESGGGLVQAGGSLRLSCAASGFTIYHNAMGWYRQAPGKERELVAAISSSGDSTYYADSVKGRFTISRDNAKNTVYLQMNSLKPEDTAVYYCNDYFYYLSLYYYYWFNYDYWGQGTQVTVSS | low polyreactivity |
| QVQLQESGGGLVQAGGCLSCTSSGTIFGQGDMGWYRQAPGKERELVATINDGASTYYADSVKGRFTISRDTAKNSVYLQKNSLKPDDTAVYYCAVFTDITTYFGYWGQGTQVTVSS | low polyreactivity |
| QVQLVESGGGLVQAGGSLRLSCAASGLTFRYYAMGRNRPARGKEREVVAVITTSTGTTYYADSVKGRFTISRDNAKNTVYLQMNSLKPEDTPVYYCATDTGAYLYSMYDYWGQVTQVTVSS | low polyreactivity |
| QVQLVESGGGLVQAGGSLRLSCAASGSIFASYGLGWYRQAPGKARELVAAITSRGTSTYYADSVKGRFTISRDNAKNTVDLQMHSLKPEETAVYYCAARLYGSAPQHEYWGQGTQVTVSS | low polyreactivity |
| QVQLVESGGGLVQAAGSLLLSCAASGSTFYYYAMGWYRQAPRKDRELVAAISRGGGSTYYADSVKGRFTISRDNAKTTVYLQMNSLKPQDTAVYYCYVSRFDSWGQGTKVTVSS | high polyreactivity |
| QVQLVESGGGLVQAGGSLRLSCAASGLIFRPYDMGWYRQAPGKERELVAAISNGDSTNYADSVKGRFTISRDNAKNTVYLQMNSLKPEDTAVYYCAAEDYYIYREPYDYWGQGTQVTVSS | low polyreactivity |
| QVQLQESGGALVQAGGSLRLSCAASGYISAGRQMGWYRQAPGKELEFVATINGGATTNYADSVKGRFTISRDNAKNSVYLQMNSLKPEDTAVYYCAAVIWYVQDYTYWGQGAQVTVSS | high polyreactivity |
| QVQLVESGGGLVQAGGSLRLSCAASGITFTSYAMGWYRQATGKERELVAAITSSGSSTYYADSVKGRFTISRDNAKNTVYLQMNSLKPEDTAVYYCAAKHVGWYVQEEDYWGQGTQVTVSS | low polyreactivity |
| QVQLVESGGGLVQAGGSLRLSCAASGSILLVYAMGWYRPAPGKERELVAAIRWSGGSTYYADSVKGRFTISRDNAKNTVYLQMNSLKPEDTAVYYCNAGESYSVKGGPYDSDYWGQGTQVTVSS | low polyreactivity |
| QVQLVESGGGLVQAGGSLRLSCAASGSTFWIYAMGWYRQAPGKERELVAAISWSTGRTYYADSVKGRFTISRDNAKNTVYLQMNSLKPEDTAVYYCNAGPQHNTLKLFYYWGQGTQVTVSS | low polyreactivity |
| QVQLVESAGGLVQAGGSLRLSCAASGSTFQYYAMGWYRLAPGKDRELVATITLIAGSTYADSVKGRFTISRDNAKNTVYLQMNSLNPEDTEVYYCAADDGGYETPELLYGGRGDDWGQGTQVTVSS | low polyreactivity |
| KVQLVESGGGLVQAGGSLRLSCAASGSIFGDNAMGWYRQAPGKERELVAAINYNGGRTYYADSVKGRFTISRDNAKNTVYLQMNSLKPEDTAVYYCAKDNYQAPVQQYPFDYWGQGSQVTVSS | low polyreactivity |

| Sequence | polyreactivity (PSR sort gate) |
| --- | --- |
| QVQLVESGGGLVQAGGSLRLSCAASGRTFNYNTMGWYRQAPGKERELVAAINKGGTRTYYADSVKGRFTISRDNAKNTVYLQMKSLNPEDTAVYYCAARIGGGSYWGQVTQVTVSS | high polyreactivity |
| QVQLVESGGGLVQSGGSLRLSCAASGITFDHYAMGWYRQAPGKERELVAAISVSGGRTYYADSVKGRFTISRDNAKNTVYLQMNSLKPEDTAVYYCAKVSQVRGFYYWGQGTQVTVSS | high polyreactivity |
| QVQLVESGGGLVQAGGSRRLSCAGSGRIFHYYAMGWYRPAPGTERELVAAISRTGSTYYADSVKGRFTISRDNAINTVYLQMNSLKPEDTAVYYCAADYWPQSNRWVYFRYGYWGQGTQVTVSS | high polyreactivity |
| QVQLVESGGGLVQAGGSLRLSCAASGRTFRSYTMGWYRQAPGKERELVAAIRTSSGSTYYADSVKGRFTISRDNAKNTVYLQMNSLKPEDTAVYYCAKTLLYPWFRTVAVDYWGQGTQVTVSS | low polyreactivity |
| QVQLVESGGGLVQAGGSLRLSCAASGLIFYTYAMGWYRQAPGKERELVAAISYDGTRTYYADSVKGRFTISRDNAKNTVYLQMNSLKPEDTAVYYCTAAYRRGDDYWGQGTQVTVSS | high polyreactivity |
| QVQLVESAGGLVQAGGRLRLSCAASGSTFSYYAMGWYRQAPGKEREWVAAISRSGGSTYYADSVKGRFTISRDNAKNTVYLQLNSLKPDDTAVYYCNRYYYTVTREFDYWGQGTQVTVSS | low polyreactivity |
| QVQLVESGGGLVQAGGSLRLSCAASGRTCGRYAMGWYRQAPGKERELVADISWNGGRTYYADSVKGRFTISRDNAKNTVYLKMNSLKPEDSAVYYCAKRFSPRYYYWGQGTQVTVSS | high polyreactivity |
| QVQLVESGGGLVQAGGSLRLSCAAYGGIFGRYAMGWYRQAPGKERELVAAISKRGGSTYYADSVKGRVTISRDNAKNTVYLQMNSLKPEETAVYYCNAAQSVELGYDYCGQGTQVTVSS | high polyreactivity |
| QVQLVESGGGLVQAGGSLRLSCVASGRTFGNKAMGWYRQAPGKERELVAAITSGGSTNYADSVKGCFTISRDNAKNTVYLQMNSLKPEDTAVYYCAAKQYRAGGGYWGQGTQVTVSS | high polyreactivity |
| QVQLVESGGGLVQAGGSLRLSCAASGRTFVSNAMGWYRQAPGKERELVAAITQSGGSTYADSVKGRFTISRDNAKNTVYLQLNSLKPEDTAVYYCNSEHAFVGTYYERHDYWGQGTQVTVSS | low polyreactivity |
| PVQLVESGGGLVQAGGSLRLSCAASGSTSSYYAMGWYRQAPGKERELVAAIRTSGRTYYADSVKGRFTISRDNAKNTVYLQMNSLQPEDTAVYYCNAGYVSPDYDSWGQGTHVTVSS | high polyreactivity |
| QVQLVESGGGLVQAGGSLRLSCAASGFTFAYYAMGWYRQAPGKERELVAAINWSGTRTSYADSVKGRFTISRDNAKNTVYLQMNSLKPEDSAVYYCAADSSLRYDYWGQGTQVTVSS | high polyreactivity |
| QVQLVESGGGLVQAGGSLRLSCAASGRTFYPYVMRWYRQAPGKERELVAAITNRGGSTYYADSVKGRFTISRDNAKKTVYLQMNSLKPEDTAVYYCAKRQVGVGHYDHWGQGTQVTVSS | low polyreactivity |
| QVQLVESGGGLVQAGGSLRLSCAASGSTFPVNAMGWYIQAPGKERELVARIRGSGGSTYYADSVKGRFTISRDNAKNTVYLQMNSLKPEDTAVYYCNADPVRSGLDYWGQGTQVTVSS | high polyreactivity |
| QVQLVESGGGLVQAGGSLRLSCADSGRIFFDYAMGWYRQAPGKERELVAAISYRGGDTYYADSVKGRFTISRDNAKNTVYLQMNSLIPEDTAVYYCAATGGYYEYWGQGTQVTVSS | low polyreactivity |
| QVQLVESGGGLVQAGGSLRLSCAASGSNFTANAMGWYRQAPGKERELVAAISRSGGRTYYADSVKGRFTISRDNAKNTVYLQMNSLKPEDTAVYYCNVGRFNTSGYDYWGQGTQVTVSS | high polyreactivity |
| QVQLVESGGGLVQAGGSLRLSCAASGIIFWYYAMGWYRQAPGKERELVASISGTGGTTYYADSVKGRFTISRDNAKNTVYLQMNSLKPEDTAVYYCAALSGQHDYDYWGQVTQVTVSS | low polyreactivity |
| QVQLVESGGGLVQAGGSLRLSCAASGFTFYSYAMGWYRQAPGKERELVATITSAGSTNYADSVKGRFTISRDNAKNTVYLQMNSLKPEDTAVYYCAAVYYYIYYWGQVTQVTVSS | high polyreactivity |
| QVQLVESGGGLVQAGGILRLSCAASGRIFYGYAMGWYRQAPGKERELVAAISSDGRTYYADSVKGRFTISRDNAKNTVYLQLNSLKPEDTAVYYCAKVPYSGYDYVYWDPSIFEYDYWGQGTQVTVSS | low polyreactivity |
| QVQLVESGGGLVQAGGSLRLSCAASGSTFVSNAMGWYRQAPGKEREFVAAISGSGGSTYYADSVKGRFTISRDNAMNTVYLQMNSLKPEVTAVYYCATAGRYGRYRTYPYRSKYDYWGQGTQVTVSS | high polyreactivity |
| QVQLVESGGGLLQAGGSLRLSCAASGLIFQNYAMGSYRQAPGKEREFVATITSSGTSTYYADSVKGRFTISRDNAKNTVYLQMNSLKPEDTAVYYCAATGYWWEYDYWGQGTQVTVSS | high polyreactivity |
